Data: the RNAGym collection of RNA variant scans (doi:10.1073/pnas.2313332121)
Variants at the floor of the assay were thinned out.

B1: TPR 5TU (parent)
chain: GGAUCUUCUCGAUCUAACAAAAAAGACAAAUCUGCCACAAAGCUUGAGAGCAUCUUCGGAUGCAGAGGCGGCAGCCUUCGGUGGCGCGAUAGCGCCAACGUUCUCAACUAUGACACGCAAAACGCGUGCUCCGUUGAAUGGAGUUUAUCAUG

Variants of: B1
Test: polymerase ribozyme fitness, log enrichment relative to wild type (log ratio); higher = more active; in vitro selection for triplet polymerase activity
Method in brief: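 Libraries of mutants in each subunit of a heterodimeric triplet polymerase ribozyme were generated by PCR and transcribed. In triplicate, each went through one in vitro selection round: annealing with biotinylated primer, partner subunit and triplets; frozen incubation at −7 °C; gel excision of extended constructs; streptavidin-bead capture; RT-PCR. Fitness, taken from Illumina sequencing of input and output libraries, is the logarithm of a genotype's enrichment over wild-type enrichment, averaged across replicates with inverse-variance weights. The logarithm is base 2, and genotypes needed ≥10 input reads and ≥1 read per output to be kept.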

Variant	polymerase ribozyme fitness (log ratio)
GGAUCUUCUCGAUCUAACAAAAAAGACAAAUCUGCCACAACGCUUGCGAGCAUCUUCGGAUGCAGAGGCGGCAGCCUUCGGUGGCGCUAUAGCGCCUACGUUCUCAACUAUGACACGCAAAACGCGUGCUCCGUUGAAUGGAGUUUAUCAUG [A41C A47C G88U A97U]	-4.03
GGAUCUUCUCGAUCUAACAAAAAAGACAAAUCUGCCACAACGCUUGAGAGCAUCUUCGGAUGCAGAGGCGGCAGCUUUCGAUGGCGCGAUAGCGCCAACGUUCUCAACUCUGACACGCAAAACGCGUGCUCCGUUGAAUGGAGUUUAUCAUG [A41C C76U G81A A110C]	≤ -4.2
GGAUCUUCUCGAUCUAACAAAAAAGACAAAUCUGCCACAUAGCUUGAGAGCAUCUUCGGAUGCAGAGGCGGCAGCCUUCGGUGGCGCGAUAGCGCCAACGUUCUCAACUAUGACACGCAAAACGCGUGCACCGUUGAAUGGAGUUUAUCAUG [A40U U130A]	-3.96
GGAUCUUCUCGAUCUAACAAAAAAGACAAAUCUGCCACAACGCUUGAGAGCAUCUUCGGAUGCAGAGGCGGCAGCCUUCGGUGGCGCGAUAGCGCCAACGUUCUCAACUAUGACACGCAAAACGCGUGCUCCGUUGAAUGGGGCUUAUCAUA [A41C A142G U144C G152A]	-3.09
GGAUCUUCUCGAUCUAACAAAAAAGACAAAUCUGCCACAACGCUUGAGAGCAUCUUCGGAUGCAGAGGCGGCGGCCUUCGGUGGCGCGAUAGCGCCAACGUUCUCAACUAUGACACGCAAAACGCGUGCUCCGUUGAAUGGAGUCUAUCAUG [A41C A73G U145C]	-1.73
GGAUCUUCUCGAUCUAACAAAAAAGACAAAUCUGCCACAACGCUUGAGAGCAUCUUCGGAUGCAGAGGCGGCAGCCUUCGGUGGCGCGAUGGCGCCAACGUUCUCAACUAUGACACGGAAAACGCGUGCUCCGUUGAAUGGAGUUUAUCAUG [A41C A91G C118G]	-3.64
GGAUCUUCUCGAUCUAACAAAAAAGACAAAUCUGCCACAACGCUUGGGAGCAUCUUCGGAUGCAGAGGCGGCAGCCUUCGGUGGCGCGAUAGCGCCAACGUUCUCAACUAUGACACGCAAAACGCGUGCUCCGUUGAAUGGAGUUUAUCAUG [A41C A47G]	-0.27
GGAUCUUCUCGAUCUAACAAAAAAGACAAAUCUGCCACAACGAUUGAGAGCAUCUUCGGAUGCAGAGGCGGCAGCCUUCGGUGGCGCGAUCGCGCCAAUGUUCUCAACUAUGUCACGCAAAACGCGUGCUCCGUUGAAUGGAGUUUAUCAUG [A41C C43A A91C C99U A113U]	≤ -4.2
GGAUCUUCUCGAUCUAACAAAAAAGACAAAUCUGCCACAACGCUUGAGCGCAUCUUCGGAUGCAGAGGCGGCAGUCUUCGGUGGAGCGAUAGCGCCAACGUUCUAAACUAUGACACGCAAAACGCGUGCUCCGUUGUAUGGCUUUUAUCAUG [A41C A49C C75U C85A C105A A137U A142C G143U]	≤ -4.2
GGAUCUUCUCGAUCUAACAAAAAAGACAAAUCUGCCACAACGAUUGAGAGCAUCUUCGGGUGCAGAGGCGGCAGCCUUCGGUGGCGCGAUAGCGCCAACGUUCUCAACUAUGACACGCAAAACGCGUGCUCCGUUGAAUGGAGUUUAUCAUG [A41C C43A A60G]	≤ -4.2
GGAUCUUCUCGAUCUAACAAAAAAGACAAAUCUGCCACAACGCUUGAGAGCGUCUUCGGAUGCAGAGGCGGCAGCCUUCGGUGGCUCGAUAGCGCCAACGUUCUCAACUAUGACACGCAAAACGCGUGCUCCGUUGAAUGGAGUUUAUCAUG [A41C A52G G86U]	-2.67
GGAUCUUCUCGAUCUAACAAAAAAGACAAAUCUGCCACAACGCUUGAGAGCAUCUUAGGAUGCAGAGGCGGCAGCCUUCGGUGGCGCGAUAGCGCCAAGGUUCCCAACUAUGACACGCAAAACGCCUGCUCCGUUGAAUGGAGGUUAUCAUG [A41C C57A C99G U104C G126C U144G]	-3.09
GGAUCUUCUCGAUCUAACAAAAAAGACAAAUCUGCCACAACGCUUGAGAGUAUCUUCGGAUGCAGAGGCGGCAGCCUUCGGUGGCGCGAUAGCGCCAACGUUCUCAACUAUGACACGCAAAACGCGUGCUCCGUUGAAUGGAGUUUAUCAUG [A41C C51U]	-0.722
GGAUCUUCUCGAUCUAACAAAAAAGACAAAUCUGCCACAACGCUUGAGAGCAUCUUUGGAUGCAGAGGCGGCAGCCUUCGGCGGCGCGAUAGCGCCAACGUUCUCAACUAUGACACGCAAAACGCGUGCUCCGUUGAAUGAAGUUUAUCAUG [A41C C57U U82C G141A]	-1.09
GGAUCUUCUCGAUCUAACAAAAAAGACAAAUCUGCCACAACGCUUGAGAGCAUCUUCGGAUGCAGAGGCGGCAGCUUUCGGUGUCGCGAUAGCGCCAACGUUCUCAACUAUGACACGCAAAACGCGUGCUCCGUUGAAUGGAGUUUAUCAUG [A41C C76U G84U]	-2.96
GGAUCUUCUCGAUCUAACAAAAAAGACAAAUCUGCCACAACGCUUGAGAGCAUCUUCGGAUGCAGAGGCGGCAGCAUUCGGUGACGCGAUAGCGCCAACGUUCUCAACUAUGACACGCACAACGCGUGCUCCGUUGAAUGGAGUUUAUCAUG [A41C C76A G84A A120C]	-2.53
GGAUCUUCUCGAUCUAACAAAAAAGACAAAUCUGCCACAACGCUUGCGAGCAUCUUCGGUUGCAGAGGCGGCAGCCUUCGGUGGCGCGAUAGCGCCAACGUUCUCAACUAUGACACGCAAAACGCGUGCUCCGUUGAAUGGAGUUUAUCAUG [A41C A47C A60U]	-2.01
GGAUCUUCUCGAUCUAACAAAAAAGACAAAUCUGCCACAACGUUUGAGAGCAUCUUCGGAUGCAGAGGCGGCAGCCUUCGGUGGCGCGAUAGCGCCAACGUUCUCAACUAUGACACGCAAAACGUGUGCUCCGUUGAAUGGAGUUUAUCAUG [A41C C43U C125U]	≤ -4.2
GGAUCUUCUCGAUCUAACAAAAAAGACAAAUCUGCCACAACGCUUGAGCGCAUCUUCGGAUGCAGAGGCGGCAGACUUCGGUGGCGCGAUAGCGACAACGUUCUCAACUAUGACACGCAAAACGCGUGCUCCGUUGAAUGGAGUUUAUCAUG [A41C A49C C75A C95A]	≤ -4.2
